Reference: paper PMC8558838 (The Journal of Experimental Medicine, 2021)

B1: hCD160-6×His tag protein [human] / WT hHVEM (L39-V202) fused with a PD-L1 transmembrane domain and EGFP, on cells [human] (parent complex)
chain 1: GCINITSSASQEGTRLNLICTVWHKKEEAEGFVVFLCKDRSGDCSPETSLKQLRLKRDPGIDGVGEISSQLMFTISQVTPLHSGTYQCCARSQKSGIRLQGHFFSILFTETGNYTVTGLKQRQHLEFSHNEGTLS
chain 2: LPSCKEDEYPVGSECCPKCSPGYRVKEACGELTGTVCEPCPPGTYIAHLNGLSKCLQCQMCDPAMGLRASRNCSRTENAVCGCSPGHFCIVQDGDHCAACRAYATSSPGQRVQKGGTESQDTLCQNCPPGTFSPNGTLEECQHQTKCSWLVTKAGAGTSSSHWV
B2: human LIGHT extracellular domain (L83-V240) [human] / WT hHVEM (L39-V202) fused with a PD-L1 transmembrane domain and EGFP, on cells [human] (parent complex)
chain 1: LIQERRSHEVNPAAHLTGANSSLTGSGGPLLWETQLGLAFLRGLSYHDGALVVTKAGYYYIYSKVQLGGVGCPLGLASTITHGLYKRTPRYPEELELLVSQQSPCGRATSSSRVWWDSSFLGGVVHLEAGEKVVVRVLDERLVRLRDGTRSYFGAFMV
chain 2: B1 chain 2
B3: full-length mouse BTLA-EGFP, on cells [mouse] / full-length WT mouse HVEM-mCherry, on cells [mouse] (parent complex)
chain 1: EKATKRNDEECPVQLTITRNSKQSARTGELFKIQCPVKYCVHRPNVTWCKHNGTICVPLEVSPQLYTSWEENQSVPVFVLHFKPIHLSDNGSYSCSTNFNSQVINSHSVTIHVRERTQNSSEHPLITVSDIPDATNASGPSTMEERPGRTWLLYTLLPLGALLLLLACVCLLCFLKRIQGKEKKPSDLAGRDTNLVDIPASSRTNHQALPSGTGIYDNDPWSSMQDESELTISLQSERNNQGIVYASLNHCVIGRNPRQENNMQEAPTEYASICVRS
chain 2: QPSCRQEEFLVGDECCPMCNPGYHVKQVCSEHTGTVCAPCPPQTYTAHANGLSKCLPCGVCDPDMGLLTWQECSSWKDTVCRCIPGYFCENQDGSHCSTCLQHTTCPPGQRVEKRGTHDQDTVCADCLTGTFSLGGTQEECLPWTNCSAFQQEVRRGTNSTDTTCSSQVVYYVVSILLPLVIVGAGIAGFLICTRRHLHTSSVAKELEPFQEQQENTIRFPVTEVGFAETEEETASN
B4: mouse CD160 (30I-154H) with C-terminal …, biotinylated [modified: biotin; biotin] [mouse] / full-length WT mouse HVEM-mCherry, on cells [mouse] (parent complex)
chain 1: IHVTSSASQKGGRLDLTCTLWHKKDEAEGLILFWCKDNPWNCSPETNLEQLRVKRDPETDGITEKSSQLVFTIEQATPSDSGTYQCCARSQKPEIYIHGHFLSVLVTGNHTEIRQRQRSHPDFSH
chain 2: B3 chain 2

Variants of: B1
Assay: flow cytometry on cells stained with soluble protein

| Variant | ratio to parent |
| --- | --- |
| chain 2 G51A | 0.9 |
| chain 2 E77A | 1.1 |

Other lines, results leading:

| ratio to parent | Variant |
| --- | --- |
| 1.1 | chain 2 L56A |
| 1.3 | chain 2 L49A |
| 1.1 | chain 2 L52A |
| 0.8 | chain 2 N50A |

Variants of: B2
Assay: as above

| Variant | ratio to parent |
| --- | --- |
| chain 2 G51A | 1.2 |
| chain 2 E77A | 1 |

Further lines, results first:

| ratio to parent | Variant |
| --- | --- |
| 0.7 | chain 2 N50A |
| 1.2 | chain 2 L49A |
| 1.8 | chain 2 L56A |
| 0.9 | chain 2 L52A |

Variants of: B3
Assay: flow cytometry, cell–cell method

| Variant | ratio to parent |
| --- | --- |
| chain 2 H48D | 1.1 |
| chain 2 G34D | 0.3 |
| chain 2 A49D | 1.3 |
| chain 2 A38W | 1.2 |
| chain 2 A38D | 1.2 |

Further lines, results first:

| ratio to parent | Variant |
| --- | --- |
| 0.9 | chain 2 L52R |
| 1 | chain 2 L52A |
| 1.1 | chain 2 H48R |
| 1 | chain 2 L56A |
| 1 | chain 2 M18D |
| 1.1 | chain 2 N50A |
| 1.3 | chain 2 K77A |
| 0.9 | chain 2 H96D |

Variants of: B3
Assay: flow cytometry, cell–cell method; read off a plot

| Variant | ratio to parent |
| --- | --- |
| chain 2 G34A, chain 2 V36D | ~0.06 |
| chain 2 H48D, chain 2 L52A | ~1 |
| chain 2 H48D, chain 2 L52D | ~1.1 |
| chain 2 G34D, chain 2 V36R | ~0.05 |
| chain 2 G34D, chain 2 V36D | ~0.06 |
| chain 2 G34D, chain 2 V36A | ~0.07 |
| chain 2 G34R, chain 2 V36A | ~0.06 |
| chain 2 H48A, chain 2 L52A | ~0.88 |

Continued, values first:

| ratio to parent | Variant |
| --- | --- |
| ~1.4 | chain 2 H48D, chain 2 L52R |
| ~1.2 | chain 2 H48R, chain 2 L52A |

Variants of: B4
Assay: flow cytometry, cell–protein method

| Variant | ratio to parent |
| --- | --- |
| chain 2 A49D | 0.7 |
| chain 2 A38D | 0.1 |
| chain 2 A38W | 1.1 |
| chain 2 G51D | 0.3 |
| chain 2 H48D | 1.1 |
| chain 2 G34A | 0.1 |
| chain 2 G34R | 0.1 |
| chain 2 G34D | 0.1 |
| chain 2 E8R | 0.1 |
| chain 2 E8A | 0.1 |

Further lines, results first:

| ratio to parent | Variant |
| --- | --- |
| 1.1 | chain 2 S98A |
| 1.1 | chain 2 S98D |
| 0.8 | chain 2 S30D |
| 0.9 | chain 2 S30A |
| 0.6 | chain 2 S30H |
| 0.1 | chain 2 P17A |
| 0.9 | chain 2 L52A |
| 0.9 | chain 2 L52D |
| 0.8 | chain 2 L52R |
| 0.6 | chain 2 K26D |
| 0.7 | chain 2 K26A |
| 1 | chain 2 H96D |
| 1.1 | chain 2 T99A |
| 1.3 | chain 2 T99D |
| 1 | chain 2 V36A |
| 0.1 | chain 2 V36D |
| 0.9 | chain 2 L56D |
| 1 | chain 2 L56A |
| 0.1 | chain 2 N50D |
| 0.1 | chain 2 N50A |
| 1.1 | chain 2 K77A |
| 0.6 | chain 2 K77D |
| 1 | chain 2 H48R |
| 0.1 | chain 2 T35A |
| 0.1 | chain 2 T35D |
| 0.2 | chain 2 R5A |
| 0.1 | chain 2 R5D |
| 0.6 | chain 2 M18A |
| 0.1 | chain 2 M18D |

Variants of: B4
Assay: flow cytometry, cell–protein method; read off a plot

| Variant | ratio to parent |
| --- | --- |
| chain 2 H48A, chain 2 L52A | ~1.4 |
| chain 2 G34A, chain 2 V36D | ~0.01 |
| chain 2 G34R, chain 2 V36A | ~0.01 |
| chain 2 H48D, chain 2 L52D | ~0.76 |
| chain 2 G34D, chain 2 V36A | ~0.01 |
| chain 2 G34D, chain 2 V36D | ~0.01 |
| chain 2 G34D, chain 2 V36R | ~0.01 |

Next, values leading:

| ratio to parent | Variant |
| --- | --- |
| ~1 | chain 2 H48R, chain 2 L52A |
| ~0.66 | chain 2 H48D, chain 2 L52R |
